Experimental data as given in patent US20230340151A1 (Pfizer, published 2023).

Key:
Experiment in all cases: peptide DELFIA ELISA;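 also: epitope mapping using overlapping 20-mer GUCY2C peptides covering residues 1-440, extracellular into transmembrane domain, coated at 20 µg/ml as target antigen and probed with antibodies or GUCY2C-CD3 bispecifics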
[1] = target: T1, GUCY2C_ECD Peptide 51 (human)
T1 peptide: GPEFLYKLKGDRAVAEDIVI
Experimental: (§1) Arrays were reconstituted with acetonitrile to 100 μg/ml and were then further diluted to 20 μg/ml with sodium carbonate/bicarbonate buffer. Purified antibodies or GUCY2c-CD3 bispecifics were then tested by Delfia ELISA for binding to the different peptides using Delfia ELISA methods previously discussed, with diluted peptides used as the target antigen.

[2] = target: T2, GUCY2C_ECD Peptide 1 (human)
T2 peptide: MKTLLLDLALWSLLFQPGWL
Experimental: as §1

[3] = target: T3, GUCY2C_ECD Peptide 15 (human)
T3 peptide: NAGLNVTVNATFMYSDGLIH
Experimental: as §1

[4] = target: T4, GUCY2C_ECD Peptide 14 (human)
T4 peptide: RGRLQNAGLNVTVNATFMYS
Experimental: as §1

[5] = target: T5, GUCY2C_ECD Peptide 11 (human)
T5 peptide: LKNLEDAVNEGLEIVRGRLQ
Experimental: as §1

[6] = target: T6, GUCY2C_ECD Peptide 40 (human)
T6 peptide: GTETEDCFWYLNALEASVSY
Experimental: as §1

[7] = target: T7, GUCY2C_ECD Peptide 69 (human)
T7 peptide: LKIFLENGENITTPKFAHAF
Experimental: as §1

[8] = target: T8, GUCY2C_ECD Peptide 81 (human)
T8 peptide: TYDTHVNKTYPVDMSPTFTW
Experimental: as §1

[9] = target: T9, GUCY2C_ECD Peptide 80 (human)
T9 peptide: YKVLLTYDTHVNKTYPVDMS
Experimental: as §1

[10] = target: T10, GUCY2C_ECD Peptide 43 (human)
T10 peptide: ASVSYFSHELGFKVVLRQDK
Experimental: as §1

[11] = target: T11, GUCY2C_ECD Peptide 86 (human)
T11 peptide: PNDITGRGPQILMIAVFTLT
Experimental: as §1

[12] = target: T12, GUCY2C_ECD Peptide 65 (human)
T12 peptide: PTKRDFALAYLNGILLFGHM
Experimental: as §1

[13] = target: T13, GUCY2C_ECD Peptide 89 (human)
T13 peptide: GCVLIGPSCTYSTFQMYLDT
Experimental: as §1

[14] = target: T14, GUCY2C_ECD Peptide 75 (human)
T14 peptide: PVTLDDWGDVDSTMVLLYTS
Experimental: as §1

[15] = target: T15, GUCY2C_ECD Peptide 2 (human)
T15 peptide: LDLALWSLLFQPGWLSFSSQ
Experimental: as §1

[16] = target: T16, GUCY2C_ECD Peptide 70 (human)
T16 peptide: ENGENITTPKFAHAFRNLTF
Experimental: as §1

[17] = target: T17, GUCY2C_ECD Peptide 57 (human)
T17 peptide: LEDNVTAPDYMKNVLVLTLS
Experimental: as §1

[18] = target: T18, GUCY2C_ECD Peptide 88 (human)
T18 peptide: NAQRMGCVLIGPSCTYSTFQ
Experimental: as §1

[19] = target: T19, GUCY2C_ECD Peptide 56 (human)
T19 peptide: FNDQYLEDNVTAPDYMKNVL
Experimental: as §1

[20] = target: T20, GUCY2C_ECD Peptide 33 (human)
T20 peptide: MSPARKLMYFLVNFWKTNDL
Experimental: as §1

[21] = target: T21, GUCY2C_ECD Peptide 17 (human)
T21 peptide: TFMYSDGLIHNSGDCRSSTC
Experimental: as §1

[22] = target: T22, GUCY2C_ECD Peptide 3 (human)
T22 peptide: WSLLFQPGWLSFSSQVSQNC
Experimental: as §1

[23] = target: T23, GUCY2C_ECD Peptide 63 (human)
T23 peptide: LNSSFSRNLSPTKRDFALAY
Experimental: as §1

[24] = target: T24, GUCY2C_ECD Peptide 19 (human)
T24 construct: also called GUCY2c peptide 19; GUCY2c-ECD peptide number 19
T24 peptide: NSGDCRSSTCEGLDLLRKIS
Experimental: as §1

[25] = target: T25, GUCY2C_ECD Peptide 22 (human)
T25 peptide: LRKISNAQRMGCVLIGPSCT
Experimental: as §1

[26] = target: T26, GUCY2C_ECD Peptide 26 (human)
T26 peptide: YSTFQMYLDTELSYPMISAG
Experimental: as §1

[27] = target: T27, GUCY2C_ECD Peptide 61 (human)
T27 peptide: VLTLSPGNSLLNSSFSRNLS
Experimental: as §1

[28] = target: T28, GUCY2C_ECD Peptide 36 (human)
T28 peptide: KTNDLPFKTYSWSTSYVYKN
Experimental: as §1

[29] = target: T29, GUCY2C_ECD Peptide 29 (human)
T29 peptide: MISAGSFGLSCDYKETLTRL
Experimental: as §1

[30] = target: T30, GUCY2C_ECD Peptide 49 (human)
T30 peptide: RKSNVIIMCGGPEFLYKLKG
Experimental: as §1

[31] = target: T31, GUCY2C_ECD Peptide 84 (human)
T31 peptide: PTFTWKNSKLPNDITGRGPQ
Experimental: as §1

[32] = target: T32, GUCY2C_ECD Peptide 25 (human)
T32 peptide: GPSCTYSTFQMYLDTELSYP
Experimental: as §1

[33] = target: T33, GUCY2C_ECD Peptide 68 (human)
T33 peptide: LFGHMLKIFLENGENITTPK
Experimental: as §1

[34] = target: T34, GUCY2C_ECD Peptide 4 (human)
T34 peptide: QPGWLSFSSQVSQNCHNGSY
Experimental: as §1

[35] = target: T35, GUCY2C_ECD Peptide 53 (human)
T35 peptide: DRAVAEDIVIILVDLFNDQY
Experimental: as §1

[36] = target: T36, GUCY2C_ECD Peptide 18 (human)
T36 peptide: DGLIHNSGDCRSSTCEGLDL
Experimental: as §1

B1: GUCY2C-1608 (bispecific antibody)
chain 1: DIQLTQSPSSLSASVGDRVTITCRASESVDYYGSSLLQWYQQKPGKAPKLLIYAASKLASGVPSRFSGSGSGTDFTLTISSLQPEDFATYYCQQTRKAYTFGQGTKLEIKGGGSGGGGEVQLVESGGGLVQPGGSLRLSCAASGFTFSDYYMTWVRQAPGKGLEWVAFIRNQARGYTSDHNPSVKGRFTISRDNAKNSLYLQMNSLRAEDTAVYYCARDRPSYYVLDYWGQGTTVTVSSGCPPCPAPEAAGAPSVFLFPPKPKDTLMISRTPEVTCVVVDVSHEDPEVKFNWYVDGVEVHNAKTKPREEQYNSTYRVVSVLTVLHQDWLNGKEYKCKVSNKALPAPIEKTISKAKGQPREPQVCTLPPSREEMTKNQVSLWCLVKGFYPSDIAVEWESNGQPENNYKTTPPVLDSDGSFFLYSKLTVDKSRWQQGNVFSCSVMHEALHNHYTQKSLSLSPG
chain 2: DIQMTQSPSSLSASVGDRVTITCTSSQSLFNVRSQKNYLAWYQQKPGKAPKLLIYWASTRESGVPSRFSGSGSGTDFTLTISSLQPEDFATYYCKQSYDLFTFGGGTKVEIKGGGGSGGGGEVQLVESGGGLVQPGGSLRLSCAASGFTFSSYWMHWVRQAPGKGLEWIGEIKPSNELTNVHEKFKDRFTISVDKAKNSAYLQMNSLRAEDTAVYYCTRTITTTEGYWFFDVWGQGTLVTVSSGCPPCPAPEAAGAPSVFLFPPKPKDTLMISRTPEVTCVVVDVSHEDPEVKFNWYVDGVEVHNAKTKPREEQYNSTYRVVSVLTVLHQDWLNGKEYKCKVSNKALPAPIEKTISKAKGQPREPQVYTLPPCREEMTKNQVSLSCAVKGFYPSDIAVEWESNGQPENNYKTTPPVLDSDGSFFLVSKLTVDKSRWQQGNVFSCSVMHEALHNHYTQKSLSLSPG
notes: also called GUCY2c CD3 bispecific
B1 was tested, and the “DELFIA TRF” value [1] was 96.8, the “DELFIA TRF” value [2] was 166 and the “DELFIA TRF” value [3] was 88.8. The “DELFIA TRF” value [4] was 97, the “DELFIA TRF” value [5] was 101 and the “DELFIA TRF” value [6] was 85.2. For the same binder, the “DELFIA TRF” value [7] was 100, the “DELFIA TRF” value [8] was 109 and the “DELFIA TRF” value [9] was 1470. For the same binder, the “DELFIA TRF” value [10] was 104, the “DELFIA TRF” value [11] was 110 and the “DELFIA TRF” value [12] was 103. The “DELFIA TRF” value [13] was 115, the “DELFIA TRF” value [14] was 88.2 and the “DELFIA TRF” value [15] was 106. For the same binder, the “DELFIA TRF” value [16] was 91.8, the “DELFIA TRF” value [17] was 99.8 and the “DELFIA TRF” value [18] was 120. The “DELFIA TRF” value [19] was 81, the “DELFIA TRF” value [20] was 87.5 and the “DELFIA TRF” value [21] was 112. The “DELFIA TRF” value [22] was 97.8, the “DELFIA TRF” value [23] was 110 and the “DELFIA TRF” value [24] was 19200. For the same binder, the “DELFIA TRF” value [25] was 93.5, the “DELFIA TRF” value [26] was 104 and the “DELFIA TRF” value [27] was 126. For the same binder, the “DELFIA TRF” value [28] was 112, the “DELFIA TRF” value [29] was 101 and the “DELFIA TRF” value [30] was 129. For the same binder, the “DELFIA TRF” value [31] was 133, the “DELFIA TRF” value [32] was 131 and the “DELFIA TRF” value [33] was 73.5. For the same binder, the “DELFIA TRF” value [34] was 125, the “DELFIA TRF” value [35] was 87.8 and the “DELFIA TRF” value [36] was 126.
